From patent US20240247066A1 (published 2024)

Key:
Trp2/H-2Kb = Trp2/H-2Kb (;mouse, biotin on the biotinylation tag (BirA)); assay: SPR
NY-ESO1/A2 = NY-ESO1/A2 (;human, UniProt A*02:01, biotin on the biotinylation tag (BirA)); assay: SPR

Row | Binder | Kd (Trp2/H-2Kb) [nM] | Kd (NY-ESO1/A2) [nM]
1 | IgG2a #13 (antibody, V domains shown) VH: EVLLQQSGPELVKPGASVKIPCKASGYTFTDYYMDWVKQSHGKSLEWIGLINPNNGGTVYNQKFKGKATLTVDKSSSAAYMEVRSLTSEDTAVYYCARKPYTGHPAWFAYWGQGTLVTVSA VL: DIQVTQSSSSFSVSLGDRVTITCKASEDIYNRLAWYQQKPGNAPRLLISGATSLETGVPDRFSGSGSRKDYTLIITSLQTEDVATYYCQQYYAFPLTFGAGTKLELK | 2.5 | 
2 | N5 (scFv) EVQLLESGGGLVQPGGSLRLSCAASGFTFSTYQMSWVRQAPGKGLEWVSGIVSSGGSTAYADSVKGRFTISRDNSKNTLYLQMNSLRAEDTAVYYCAGELLPFYGMDYWGQGTTVTVSQSELTQPRSVSGSPGQSVTISCTGTLRDVGGYNYVSWYQQHPGKAPKLIIHDVIERSSGVPDRFSGSKSGNTASLTISGLQAEDEADYYCWSAAMAYGVFGTGTDVTVL |  | 2
